Measurements reported in PMC3115021, “Dynamics of Cdk1 Substrate Specificity during the Cell Cycle” (Molecular Cell, 2011).

Tests used:
Test in all cases: Quantitative phosphorylation assay of T33-Sic1ΔC constructs and recombinant substrates
Format in all cases: biochemical
Details in all cases: Table S2; purified protein substrate; relative values, not divided by [S]
Clb2hpm-Cdk1 = target: T1, Clb2hpm-Cdk1 (Saccharomyces cerevisiae, UniProt P00546)
T1 construct: made in house; host or cells: S. cerevisiae strain DOM0964 (gal-CLB2hpm-TAP, sic1 deleted); Cks1 from bacteria
T1 sequence (P00546 2-298 limits assumed): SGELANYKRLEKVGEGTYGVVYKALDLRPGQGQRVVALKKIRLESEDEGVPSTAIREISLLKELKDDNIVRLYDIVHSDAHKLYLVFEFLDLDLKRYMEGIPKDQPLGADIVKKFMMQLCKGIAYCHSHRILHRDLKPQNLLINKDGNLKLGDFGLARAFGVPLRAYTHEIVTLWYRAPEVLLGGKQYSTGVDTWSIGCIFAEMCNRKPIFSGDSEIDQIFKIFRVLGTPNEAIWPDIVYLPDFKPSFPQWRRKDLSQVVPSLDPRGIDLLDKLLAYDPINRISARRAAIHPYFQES
Outline: (§1)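 Yeast cyclin-Cdk1 complexes (1–10 nM, TAP-purified) phosphorylated 6His-T33-Sic1ΔC (other S/T-P sites mutated to Ala-Ala) or recombinant substrates at 0.5–2 μM, below KM, with 32P-γ-ATP. Initial velocities (≤10% turnover) from two or more time points, SDS-PAGE stopped; relative kcat/KM from v0 ratios.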

Clb5hpm-Cdk1 = target: T2, Clb5hpm-Cdk1 (Saccharomyces cerevisiae, UniProt P00546)
T2 construct: made in house; host or cells: S. cerevisiae strain DOM0963 (gal-CLB5hpm-TAP, sic1 deleted); Cks1 from bacteria
T2 sequence (P00546 2-298 limits assumed): as above
Outline: as §1

Clb3hpm-Cdk1 = target: T3, Clb3hpm-Cdk1 (Saccharomyces cerevisiae, UniProt P00546+P24870)
T3 construct: made in house; host or cells: S. cerevisiae strain MK0168 (gal-CLB3hpm-TAP, sic1 deleted); Cks1 from bacteria
Outline: as §1

Clb2-Cdk1 = target: T4, Clb2-Cdk1 (Saccharomyces cerevisiae, UniProt P00546+P24869)
T4 construct: We purified the four cyclin-Cdk1 complexes from yeast; made in house; host or cells: S. cerevisiae strain DOM0077 (gal-CLB2-TAP, sic1 deleted); Cks1 from bacteria
T4 sequence (P00546 2-298 limits assumed): as above
T4 sequence (P24869 2-491 partner limits assumed): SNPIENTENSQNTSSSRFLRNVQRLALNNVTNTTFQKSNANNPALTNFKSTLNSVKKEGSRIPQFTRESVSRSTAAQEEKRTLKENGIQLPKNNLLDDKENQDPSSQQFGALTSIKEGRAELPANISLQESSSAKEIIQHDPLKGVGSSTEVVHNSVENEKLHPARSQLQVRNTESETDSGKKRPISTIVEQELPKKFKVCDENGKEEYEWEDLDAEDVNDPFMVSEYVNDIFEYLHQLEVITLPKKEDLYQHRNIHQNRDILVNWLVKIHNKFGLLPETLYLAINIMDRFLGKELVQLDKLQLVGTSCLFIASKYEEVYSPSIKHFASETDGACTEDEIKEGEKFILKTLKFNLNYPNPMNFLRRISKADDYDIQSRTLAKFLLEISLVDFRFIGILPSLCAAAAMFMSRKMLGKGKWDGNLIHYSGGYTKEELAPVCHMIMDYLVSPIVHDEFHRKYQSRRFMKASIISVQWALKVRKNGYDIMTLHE
T4 sequence (P20486 whole entry partner): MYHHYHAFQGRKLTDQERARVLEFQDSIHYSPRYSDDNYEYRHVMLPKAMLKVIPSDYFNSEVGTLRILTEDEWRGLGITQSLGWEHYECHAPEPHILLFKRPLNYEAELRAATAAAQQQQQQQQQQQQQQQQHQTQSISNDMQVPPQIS

Clb5-Cdk1 = target: T5, Clb5-Cdk1 (Saccharomyces cerevisiae, UniProt P00546+P30283)
T5 construct: We purified the four cyclin-Cdk1 complexes from yeast; made in house; host or cells: S. cerevisiae strain DOM0076 (gal-CLB5-TAP, sic1 deleted); Cks1 from bacteria
T5 sequence (P00546 2-298 limits assumed): as the sequence (P00546 2-298 limits assumed) above
T5 sequence (P30283 whole entry partner): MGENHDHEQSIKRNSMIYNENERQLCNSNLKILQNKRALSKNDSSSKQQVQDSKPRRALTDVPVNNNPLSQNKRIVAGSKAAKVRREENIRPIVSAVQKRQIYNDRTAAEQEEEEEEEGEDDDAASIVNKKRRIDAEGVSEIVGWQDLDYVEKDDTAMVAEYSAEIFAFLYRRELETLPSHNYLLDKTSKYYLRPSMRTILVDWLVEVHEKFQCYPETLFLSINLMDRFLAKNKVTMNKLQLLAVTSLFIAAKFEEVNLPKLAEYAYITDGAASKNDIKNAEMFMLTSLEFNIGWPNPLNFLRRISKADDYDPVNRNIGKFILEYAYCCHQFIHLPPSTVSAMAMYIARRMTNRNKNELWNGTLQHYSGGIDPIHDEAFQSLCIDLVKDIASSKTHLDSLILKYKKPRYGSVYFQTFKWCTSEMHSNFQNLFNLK
T5 sequence (P20486 whole entry partner): as the sequence (P20486 whole entry partner) above

Cln2-Cdk1 = target: T6, Cln2-Cdk1 (Saccharomyces cerevisiae, UniProt P00546+P20438)
T6 construct: We purified the four cyclin-Cdk1 complexes from yeast; made in house; host or cells: S. cerevisiae strain DMY305 (galactose-induced); Cks1 from bacteria
T6 sequence (P00546 2-298 limits assumed): as the sequence (P00546 2-298 limits assumed) above
T6 sequence (P20438 whole entry partner): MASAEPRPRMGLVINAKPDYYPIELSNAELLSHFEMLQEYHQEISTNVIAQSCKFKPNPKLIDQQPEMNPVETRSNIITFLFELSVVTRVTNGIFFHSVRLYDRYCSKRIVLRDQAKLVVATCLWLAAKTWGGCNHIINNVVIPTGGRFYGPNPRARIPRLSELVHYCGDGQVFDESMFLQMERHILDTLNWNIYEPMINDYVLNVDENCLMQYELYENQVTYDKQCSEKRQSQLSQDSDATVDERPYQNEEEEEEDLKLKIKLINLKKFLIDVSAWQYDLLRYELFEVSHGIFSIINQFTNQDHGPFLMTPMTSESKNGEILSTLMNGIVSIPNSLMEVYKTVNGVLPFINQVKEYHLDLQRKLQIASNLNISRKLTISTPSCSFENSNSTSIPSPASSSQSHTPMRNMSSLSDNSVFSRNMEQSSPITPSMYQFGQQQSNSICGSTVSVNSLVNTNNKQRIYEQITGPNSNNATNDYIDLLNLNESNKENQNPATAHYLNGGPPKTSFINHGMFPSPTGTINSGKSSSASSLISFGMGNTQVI
T6 sequence (P20486 whole entry partner): as the sequence (P20486 whole entry partner) above

Clb3-Cdk1 = target: T7, Clb3-Cdk1 (Saccharomyces cerevisiae, UniProt P00546+P24870)
T7 construct: We purified the four cyclin-Cdk1 complexes from yeast; made in house; host or cells: S. cerevisiae strain DOM0957 (gal-CLB3-TAP, sic1 deleted); Cks1 from bacteria
T7 sequence (P00546 2-298 limits assumed): as the sequence (P00546 2-298 limits assumed) above
T7 sequence (P24870 whole entry partner): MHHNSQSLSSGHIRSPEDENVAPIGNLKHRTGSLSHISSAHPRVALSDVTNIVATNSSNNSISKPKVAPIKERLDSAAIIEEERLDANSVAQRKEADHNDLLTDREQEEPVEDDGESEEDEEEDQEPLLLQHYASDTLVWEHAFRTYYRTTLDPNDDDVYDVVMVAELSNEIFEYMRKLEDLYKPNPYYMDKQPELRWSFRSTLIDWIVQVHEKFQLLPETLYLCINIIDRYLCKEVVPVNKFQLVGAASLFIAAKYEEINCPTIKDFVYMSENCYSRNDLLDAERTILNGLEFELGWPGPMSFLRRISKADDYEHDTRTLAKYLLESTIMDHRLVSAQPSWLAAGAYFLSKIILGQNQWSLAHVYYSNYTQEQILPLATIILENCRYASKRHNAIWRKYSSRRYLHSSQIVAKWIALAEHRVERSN
T7 sequence (P20486 whole entry partner): as the sequence (P20486 whole entry partner) above

Molecule | kcat/KM, Clb2hpm (Clb2hpm-Cdk1) | kcat/KM, Clb5hpm (Clb5hpm-Cdk1) | kcat/KM, Clb3hpm (Clb3hpm-Cdk1) | kcat/KM, Clb2 (Clb2-Cdk1) | kcat/KM, Clb5 (Clb5-Cdk1) | kcat/KM, Cln2 (Cln2-Cdk1) | kcat/KM, Clb3 (Clb3-Cdk1)
CDC6: replication factor and pre-RC component, tested as Cdk1 substrate (protein, UniProt P09119 1-513, looked up) Cell division control protein …: MSAIPITPTKRIRRNLFDDAPATPPRPLKRKKLQFTDVTPESSPEKLQFGSQSIFLRTKALLQKSSELVNLNSSDGALPARTAEYEQVMNFLAKAISEHRSDSLYITGPPGTGKTAQLDMIIRQKFQSLPLSLSTPRSKDVLRHTNPNLQNLSWFELPDGRLESVAVTSINCISLGEPSSIFQKIFDSFQDLNGPTLQIKNMQHLQKFLEPYHKKTTFVVVLDEMDRLLHANTSETQSVRTILELFLLAKLPTVSFVLIGMANSLDMKDRFLSRLNLDRGLLPQTIVFQPYTAEQMYEIVIQKMSSLPTIIFQPMAIKFAAKKCAGNTGDLRKLFDVLRGSIEIYELEKRFLLSPTRGSLNSAQVPLTPTTSPVKKSYPEPQGKIGLNYIAKVFSKFVNNNSTRTRIAKLNIQQKLILCTIIQSLKLNSDATIDESFDHYIKAITKTDTLAPLQRNEFLEICTILETCGLVSIKKTKCKGKTKRFVDKIDVDLDMREFYDEMTKISILKPFLH | 1.688 relative units | 0.138 relative units | 0.350 relative units | 0.078 relative units | 2.898 relative units | 0.084 relative units | 2.268 relative units
CDH1: protein purified using the baculovirus system, tested as Cdk1 substrate (protein, UniProt P53197 1-566, looked up) APC/C activator protein CDH1: MSTNLNPFMNNTPSSSPLKGSESKRVSKRPISSSSSASLLSSPSRRSRPSTVYGDRYIPSRTDIDFNSIVSISSMASVPALNPSSTEDQVEYQKERQAHETYNTLLKNELFGEMLSKDTVGSESSIDRIKNTRPSTRGNVHAENTTRHGYELERVSTPPPEAAGLEEFSPHSTPVTPRRLFTSQQDEITRPSSNSVRGASLLTYQQRKGRRLSAASLLQSQFFDSMSPVRPDSKQLLLSPGKQFRQIAKVPYRVLDAPSLADDFYYSLIDWSSTDVLAVALGKSIFLTDNNTGDVVHLCDTENEYTSLSWIGAGSHLAVGQANGLVEIYDVMKRKCIRTLSGHIDRVACLSWNNHVLTSGSRDHRILHRDVRMPDPFFETIESHTQEVCGLKWNVADNKLASGGNDNVVHVYEGTSKSPILTFDEHKAAVKAMAWSPHKRGVLATGGGTADRRLKIWNVNTSIKMSDIDSGSQICNMVWSKNTNELVTSHGYSKYNLTLWDCNSMDPIAILKGHSFRVLHLTLSNDGTTVVSGAGDETLRYWKLFDKPKAKVQPNSLIFDAFNQIR | 0.023 relative units | 0.006 relative units | 0.008 relative units | 0.035 relative units | 0.025 relative units | 0.016 relative units | 0.024 relative units
FAR1: Cdk1 inhibitor Far1, tested as Cdk1 substrate (protein, UniProt P21268 1-830, looked up) Cyclin-dependent kinase …: MKTPTRVSFEKKIHTPPSGDRDAERSPPKKFLRGLSGKVFRKTPEFKKQQMPTFGYIEESQFTPNLGLMMSKRGNIPKPLNLSKPISPPPSLKKTAGSVASGFSKTGQLSALQSPVNITSSNKYNIKATNLTTSLLRESISDSTTMCDTLSDINLTVMDEDYRIDGDSYYEEDSPTFMISLERNIKKCNSQFSPKRYIGEKCLICEESISSTFTGEKVVESTCSHTSHYNCYLMLFETLYFQGKFPECKICGEVSKPKDKDIVPEMVSKLLTGAGAHDDGPSSNMQQQWIDLKTARSFTGEFPQFTPQEQLIRTADISCDGFRTPRLSNSNQFEAVSYLDSPFLNSPFVNKMATTDPFDLSDDEKLDCDDEIDESAAEVWFSKTGGEHVMVSVKFQEMRTSDDLGVLQDVNHVDHEELEEREKEWKKKIDQYIETNVDKDSEFGSLILFDKLMYSDDGEQWVDNNLVILFSKFLVLFDFEEMKILGKIPRDQFYQVIKFNEDVLLCSLKSTNIPEIYLRFNENCEKWLLPKWKYCLENSSLETLPLSEIVSTVKELSHVNIIGALGAPPDVISAQSHDSRLPWKRLHSDTPLKLIVCLNLSHADGELYRKRVLKSVHQILDGLNTDDLLGIVVVGRDGSGVVGPFGTFIGMINKNWDGWTTFLDNLEVVNPNVFRDEKQQYKVTLQTCERLASTSAYVDTDDHIATGYAKQILVLNGSDVVDIEHDQKLKKAFDQLSYHWRYEISQRRMTPLNASIKQFLEELHTKRYLDVTLRLPQATFEQVYLGDMAAGEQKTRLIMDEHPHSSLIEIEYFDLVKQQRIHQTLEVPNL | 0.033 relative units | 0.003 relative units | 0.008 relative units | 0.029 relative units | 0.115 relative units | 0.042 relative units | 0.031 relative units
FIN1: spindle-stabilizing protein, tested as Cdk1 substrate (protein, UniProt Q03898 1-291, looked up) Filament protein FIN1: MSNKSNRRSLRDIGNTIGRNNIPSDKDNVFVRLSMSPLRTTSQKEFLKPPMRISPNKTDGMKHSIQVTPRRIMSPECLKGYVSKETQSLDRPQFKNSNKNVKIQNSDHITNIIFPTSPTKLTFSNENKIGGDGSLTRIRARFKNGLMSPERIQQQQQQHILPSDAKSNTDLCSNTELKDAPFENDLPRAKLKGKNLLVELKKEEEDVGNGIESLTKSNTKLNSMLANEGKIHKASFQKSVKFKLPDNIVTEETVELKEIKDLLLQMLRRQREIESRLSNIELQLTEIPKHK | 14.08 relative units | 3.651 relative units | 7.488 relative units | 12.43 relative units | 23.02 relative units | 1.800 relative units | 10.96 relative units
EXO84: purified yeast protein tested as Cdk1 substrate (protein, UniProt P38261 1-753, looked up) Exocyst complex component …: MVEFSLKKARNNWKHVKKSASSPAKQKTPPSPAKPKQKTKKNPYSDLKDPATSYTLPTINARERSRVATSMQRRLSIHNTNYAPPTLDYSMPLPDMPNMIVPNDNVDSSHNNSSFTTENESVSSKGPSNSLNLSTADLSLNDSSYNKVPARSAMRNTVNPSGSNDPFNNSTSLRKMLANPHFNAKDFVHDKLGNASAITIDKFTSNLTDLSIQVQEEVKLNINKSYNEIMTVNNDLNVAMLELKRVRANINDLNEVLDQCTKIAEKRLQLQDQIDQERQGNFNNVESHSNSPALLPPLKAGQNGNLMRRDRSSVLILEKFWDTELDQLFKNVEGAQKFINSTKGRHILMNSANWMELNTTTGKPLQMVQIFILNDLVLIADKSRDKQNDFIVSQCYPLKDVTVTQEEFSTKRLLFKFSNSNSSLYECRDADECSRLLDVIRKAKDDLCDIFHVEEENSKRIRESFRYLQSTQQTPGRENNRSPNKNKRRSMGGSITPGRNVTGAMDQYLLQNLTLSMHSRPRSRDMSSTAQRLKFLDEGVEEIDIELARLRFESAVETLLDIESQLEDLSERISDEELMLLNLISLKIEQRREAISSKLSQSILSSNEIVHLKSGTENMIKLGLPEQALDLFLQNRSNFIQDLILQIGSVDNPTNYLTQLAVIRFQTIKKTVEDFQDIFKELGAKISSILVDWCSDEVDNHFKLIDKQLLNDEMLSPGSIKSSRKQIDGLKAVGLDFVYKLDEFIKKNSDKIR | 0.062 relative units | 0.006 relative units | 0.014 relative units | 0.074 relative units | 0.019 relative units | 0.084 relative units | 0.031 relative units
